Results taken from patent publication US20070298448A1 (PROTEOSYS, published 2007).
Primed or numbered codes have the meaning given here. Ends that are not written are not given here. Bz′ = not defined here; OBz = not defined here

How the values were obtained:
human angiotensin I = target: T1, human angiotensin I (human, UniProt P01019 25-34); test: peptide incubated with mutant on Ni-NTA-agarose beads, washed, acid eluate read by MALDI-TOF
T1 construct: also called calibration peptide; control peptide

human angiotensin II = target: T2, human angiotensin II (human, UniProt P01019 25-32); test: as above
T2 construct: also called calibration peptide; control peptide

[1] = target: T3, [Cys(Bz)^84, Glu(OBz)^85]-CD4(81-92) (UniProt P01730 106-117, reading uncertain); test: mutant immobilized on Ni-NTA-agarose beads, peptide incubated, washed, eluted with 200 mM acetic acid, MALDI-TOF
T3 construct: range 81-92; Synthetic derivatized peptide
T3 peptide: TYIC(Bz′)E(OBz)VEDQKEE

B1: 6xHis-Ser237Ala-V8Δ48 mutant (enzyme)
chain: MRGSHHHHHHGSVILPNNDRHQITDTTNGHYAPVTYIQVEAPTGTFIASGVVVGKDTLLTNKHVVDATHGDPHALKAFPSAINQDNYPNGGFTAEQITKYSGEGDLAIVKFSPNEQNKHIGEVVKPATMSNNAETQVNQNITVTGYPGDKPVATMWESKGKITYLKGEAMQYDLSTTGGNAGSPVFNEKNEVIGIHWGGVPNEFNGAVFINENVRNFLKQNIEDIHFANDDQKLN
notes: also called Ser237Ala-V8Δ48 protease; anhydro mutant of the V8 proteinase
Human angiotensin I
  binding result: no binding
Human angiotensin II
  binding result: no binding
[1]
  binding result: binds
